According to patent US20100120695A1 (University of Pennsylvania, published 2010):
Square brackets hold non-standard residues; d marks the D form. Ends that are not written are not given here. AEEA = NCCOCCOCC(=O)O

Assays:
[1] = molecular target: T1, αV-TM-coum (coumarin label (site not stated)); assay: analytical ultracentrifugation, equilibrium sedimentation, heterodimer, 1:1 mixture in 5 mM C14-betaine micelles
T1 peptide: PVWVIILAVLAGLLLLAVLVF

[2] = molecular target: integrin αVβ3 on human platelets (human, UniProt P06756 31-1048; P05106 27-788); assay: cell-based or functional assay
[3] = molecular target: the molecule itself; assay: analytical ultracentrifugation, equilibrium sedimentation, homodimer, 5 mM C14-betaine micelles
Method: (§1) Equilibrium sedimentation was used primarily to determine the association state of the peptides, but also to provide a rough estimate of the heterodimeric association constants. […] Peptides were co-dissolved in CF₃CH₂OH (Sigma-Aldrich, St. Louis, Mo.) and C14-betaine (3-(N,N-dimethylmyristyl-ammonio)propanesulfonate; Sigma-Aldrich, St. Louis, Mo.). […] The final concentration of C-14 betaine is 5 mM in the samples. Samples were prepared in a total peptide concentration of 50 μM (in case of heterodimer formation, a 1:1 mixture was prepared) and incubated overnight. Data at three measurement speeds (40, 45, and 50 KRPM for αIIb peptides and 30, 35, and 40 KRPM for the αv peptides) were analyzed by global curve-fitting of radial concentration gradients (measured using optical absorption) (FIG. 8a-8f) to the sedimentation equilibrium equation for monomer-dimer equilibria among the peptides included in the solution. […] Aqueous solution molar extinction coefficients at 280 nm were calculated using the program Sednterp. […] These coefficients were multiplied by the molar detergent concentration to provide mole ratio concentration units.
(§2) Ultracentrifugation data (FIG. 8) were first collected for the individual peptides.

[4] = molecular target: T2, fluorescein-5-isothiourea-tagged αIIb-TM (fluorescein-5-isothiourea (FITC) attached via an ε-aminohexanoic acid linker to the N-terminus); assay: analytical ultracentrifugation, equilibrium sedimentation, heterodimer, 1:1 mixture in 5 mM C14-betaine micelles
T2 construct: also called FITC-αIIb-TM; αIIb-TM-FITC
T2 peptide: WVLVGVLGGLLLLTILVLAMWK
Method: as §1, §2

Sequence of integrin αVβ3 on human platelets (P06756 31-1048, chain 1 of 2): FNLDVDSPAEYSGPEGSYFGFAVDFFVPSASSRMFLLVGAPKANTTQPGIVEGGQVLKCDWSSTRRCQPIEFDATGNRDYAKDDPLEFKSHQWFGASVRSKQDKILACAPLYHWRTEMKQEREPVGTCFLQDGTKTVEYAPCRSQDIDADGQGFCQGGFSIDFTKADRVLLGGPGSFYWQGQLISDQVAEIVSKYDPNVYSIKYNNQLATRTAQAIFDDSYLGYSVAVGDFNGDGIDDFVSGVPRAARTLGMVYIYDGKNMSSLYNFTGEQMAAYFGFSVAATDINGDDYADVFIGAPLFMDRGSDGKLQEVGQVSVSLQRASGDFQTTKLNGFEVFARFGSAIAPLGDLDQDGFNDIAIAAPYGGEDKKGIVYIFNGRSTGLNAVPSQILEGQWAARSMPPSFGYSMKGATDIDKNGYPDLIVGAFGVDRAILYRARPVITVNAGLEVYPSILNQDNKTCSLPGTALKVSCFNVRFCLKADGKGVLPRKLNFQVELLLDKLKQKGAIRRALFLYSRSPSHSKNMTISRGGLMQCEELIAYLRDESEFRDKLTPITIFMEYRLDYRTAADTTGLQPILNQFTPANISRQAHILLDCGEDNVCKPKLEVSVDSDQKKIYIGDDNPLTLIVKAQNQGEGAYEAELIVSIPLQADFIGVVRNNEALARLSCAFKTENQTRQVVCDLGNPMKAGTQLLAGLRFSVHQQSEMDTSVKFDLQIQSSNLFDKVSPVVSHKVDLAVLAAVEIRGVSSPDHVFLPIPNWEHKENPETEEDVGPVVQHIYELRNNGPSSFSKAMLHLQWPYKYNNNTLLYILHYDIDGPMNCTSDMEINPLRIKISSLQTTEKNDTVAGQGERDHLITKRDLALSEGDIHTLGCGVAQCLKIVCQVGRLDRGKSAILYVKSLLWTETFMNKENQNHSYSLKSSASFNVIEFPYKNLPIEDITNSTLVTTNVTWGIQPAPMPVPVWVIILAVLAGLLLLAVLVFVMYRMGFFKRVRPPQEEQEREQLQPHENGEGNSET
Sequence of integrin αVβ3 on human platelets (P05106 27-788, chain 2 of 2): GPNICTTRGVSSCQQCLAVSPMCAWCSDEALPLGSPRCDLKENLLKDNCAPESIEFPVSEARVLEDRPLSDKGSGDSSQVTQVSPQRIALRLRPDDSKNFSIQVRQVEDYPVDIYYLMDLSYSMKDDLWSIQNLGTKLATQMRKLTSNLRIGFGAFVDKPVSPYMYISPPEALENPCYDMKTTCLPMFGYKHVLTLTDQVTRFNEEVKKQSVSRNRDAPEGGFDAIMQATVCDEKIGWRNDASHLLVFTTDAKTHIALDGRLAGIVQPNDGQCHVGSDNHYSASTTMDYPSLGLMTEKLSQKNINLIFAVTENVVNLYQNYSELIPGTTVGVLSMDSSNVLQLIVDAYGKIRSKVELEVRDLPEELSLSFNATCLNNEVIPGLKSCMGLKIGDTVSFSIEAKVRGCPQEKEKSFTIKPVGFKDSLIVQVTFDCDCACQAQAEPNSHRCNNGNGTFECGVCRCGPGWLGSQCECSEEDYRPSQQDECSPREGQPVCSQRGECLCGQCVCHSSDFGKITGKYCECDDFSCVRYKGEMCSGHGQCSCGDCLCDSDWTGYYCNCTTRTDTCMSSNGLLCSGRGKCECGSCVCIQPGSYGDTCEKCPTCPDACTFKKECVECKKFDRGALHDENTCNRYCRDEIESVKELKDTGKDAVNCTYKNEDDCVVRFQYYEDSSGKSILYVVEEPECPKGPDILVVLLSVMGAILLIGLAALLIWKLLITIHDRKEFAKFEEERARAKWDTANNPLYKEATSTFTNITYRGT

Binder | Dimerization pKdiss [3] | other results
[AEEA]AYVFILLSFILGTLLGFLVMFWA (designed binder) [anti-αV polypeptide] | – | Dimerization pKdiss [1]: > 2 pKdiss (mole ratio units); fold decrease in potency in inducing platelet adhesion to immobilized osteopontin [2]: ~10 fold
KKAYVMLLPFFIGLLLGLIFGGAFWGPARHLKK (designed binder, also: FITC-labeled, site not given here) [Anti-αIIb (FITC-labeled)] | 2.3 pKdiss (mole ratio units) | –
KKAYVMLLPFFIGLLLGLIFGGAFWGPARHLKK (designed binder, also called anti-am) [anti-αIIb polypeptide] | – | Dimerization pKdiss [4]: 2.6 pKdiss (mole ratio units)
WVLVGVLGGLLLLTILVLAMWK [αIIb-TM polypeptide] | 1.8 pKdiss (mole ratio units) | –
AYVFILLSFILGTLLGFLVMFWA (designed binder, also: coumarin-labeled, site not given here) [Anti-αV(coumarin-labeled)] | 1.4 pKdiss (mole ratio units) | –
PVWVIILAVLAGLLLLAVLVF [αV-TM] | 0.7 pKdiss (mole ratio units) | –
